Measurements as given in article PMC7367873, “Dissecting the sequence determinants for dephosphorylation by the catalytic subunits of phosphatases PP1 and PP2A” (Nature Communications, 2020).

B1: YTHDF2 (protein, UniProt Q9Y5A9 2-579, looked up)
YTH domain-containing family …: SASSLLEQRPKGQGNKVQNGSVHQKDGLNDDDFEPYLSPQARPNNAYTAMSDSYLPSYYSPSIGFSYSLGEAAWSTGGDTAMPYLTSYGQLSNGEPHFLPDAMFGQPGALGSTPFLGQHGFNFFPSGIDFSAWGNNSSQGQSTQSSGYSSNYAYAPSSLGGAMIDGQSAFANETLNKAPGMNTIDQGMAALKLGSTEVASNVPKVVGSAVGSGSITSNIVASNSLPPATIAPPKPASWADIASKPAKQQPKLKTKNGIAGSSLPPPPIKHNMDIGTWDNKGPVAKAPSQALVQNIGQPTQGSPQPVGQQANNSPPVAQASVGQQTQPLPPPPPQPAQLSVQQQAAQPTRWVAPRNRGSGFGHNGVDGNGVGQSQAGSGSTPSEPHPVLEKLRSINNYNPKDFDWNLKHGRVFIIKSYSEDDIHRSIKYNIWCSTEHGNKRLDAAYRSMNGKGPVYLLFSVNGSGHFCGVAEMKSAVDYNTCAGVWSQDKWKGRFDVRWIFVKDVPNSQLRHIRLENNENKPVTNSRDTQEVPLEKAKQVLKIIASYKHTTSIFDDFSHYEKRQEEEESVKKERQGRGK
B2: SLC25A3 (protein, UniProt Q00325 50-362, looked up)
Solute carrier family 25 …: AVEEQYSCDYGSGRFFILCGLGGIISCGTTHTALVPLDLVKCRMQVDPQKYKGIFNGFSVTLKEDGVRGLAKGWAPTFLGYSMQGLCKFGFYEVFKVLYSNMLGEENTYLWRTSLYLAASASAEFFADIALAPMEAAKVRIQTQPGYANTLRDAAPKMYKEEGLKAFYKGVAPLWMRQIPYTMMKFACFERTVEALYKFVVPKPRSECSKPEQLVVTFVAGYIAGVFCAIVSHPADSVVSVLNKEKGSSASLVLKRLGFKGVWKGLFARIIMIGTLTALQWFIYDSVKVYFRLPRPPPPEMPESLKKKLGLTQ
B3: MGST1 (protein, UniProt P10620 1-155, looked up)
Microsomal glutathione …: MVDLTQVMDDEVFMAFASYATIILSKMMLMSTATAFYRLTRKVFANPEDCVAFGKGENAKKYLRTDDRVERVRRAHLNDLENIIPFLGIGLLYSLSGPDPSTAILHFRLFVGARIYHTIAYLTPLPQPNRALSFFVGYGVTLSMAYRLLKSKLYL
B4: BANF1 (protein, UniProt O75531 1-89, looked up)
Barrier-to-autointegration …: MTTSQKHRDFVAEPMGEKPVGSLAGIGEVLGKKLEERGFDKAYVVLGQFLVLKKDEDLFREWLKDTCGANAKQSRDCFGCLREWCDAFL
B5: SERBP1 (protein, UniProt Q8NC51 2-408, looked up)
SERPINE1 mRNA-binding protein …: PGHLQEGFGCVVTNRFDQLFDDESDPFEVLKAAENKKKEAGGGGVGGPGAKSAAQAAAQTNSNAAGKQLRKESQKDRKNPLPPSVGVVDKKEETQPPVALKKEGIRRVGRRPDQQLQGEGKIIDRRPERRPPRERRFEKPLEEKGEGGEFSVDRPIIDRPIRGRGGLGRGRGGRGRGMGRGDGFDSRGKREFDRHSGSDRSSFSHYSGLKHEDKRGGSGSHNWGTVKDELTESPKYIQKQISYNYSDLDQSNVTEETPEGEEHHPVADTENKENEVEEVKEEGPKEMTLDEWKAIQNKDRAKVEFNIRKPNEGADGQWKKGFVLHKSKSEEAHAEDSVMDHHFRKPANDITSQLEINFGDLGRPGRGGRGGRGGRGRGGRPNRGSRTDKSSASAPDVDDPEAFPALA
B6: LGALS3BP (protein, UniProt Q08380 19-585, looked up)
Galectin-3-binding protein: VNDGDMRLADGGATNQGRVEIFYRGQWGTVCDNLWDLTDASVVCRALGFENATQALGRAAFGQGSGPIMLDEVQCTGTEASLADCKSLGWLKSNCRHERDAGVVCTNETRSTHTLDLSRELSEALGQIFDSQRGCDLSISVNVQGEDALGFCGHTVILTANLEAQALWKEPGSNVTMSVDAECVPMVRDLLRYFYSRRIDITLSSVKCFHKLASAYGARQLQGYCASLFAILLPQDPSFQMPLDLYAYAVATGDALLEKLCLQFLAWNFEALTQAEAWPSVPTDLLQLLLPRSDLAVPSELALLKAVDTWSWGERASHEEVEGLVEKIRFPMMLPEELFELQFNLSLYWSHEALFQKKTLQALEFHTVPFQLLARYKGLNLTEDTYKPRIYTSPTWSAFVTDSSWSARKSQLVYQSRRGPLVKYSSDYFQAPSDYRYYPYQSFQTPQHPSFLFQDKRVSWSLVYLPTIQSCWNYGFSCSSDELPVLGLTKSGGSDRTIAYENKALMLCEGLFVADVTDFEGWKAAIPSALDTNSSKSTSSFPCPAGHFNGFRTVIRPFYLTNSSGVD
B7: TMEM43 (protein, UniProt Q9BTV4 2-400, looked up)
Transmembrane protein 43: AANYSSTSTRREHVKVKTSSQPGFLERLSETSGGMFVGLMAFLLSFYLIFTNEGRALKTATSLAEGLSLVVSPDSIHSVAPENEGRLVHIIGALRTSKLLSDPNYGVHLPAVKLRRHVEMYQWVETEESREYTEDGQVKKETRYSYNTEWRSEIINSKNFDREIGHKNPSAMAVESFMATAPFVQIGRFFLSSGLIDKVDNFKSLSLSKLEDPHVDIIRRGDFFYHSENPKYPEVGDLRVSFSYAGLSGDDPDLGPAHVVTVIARQRGDQLVPFSTKSGDTLLLLHHGDFSAEEVFHRELRSNSMKTWGLRAAGWMAMFMGLNLMTRILYTLVDWFPVFRDLVNIGLKAFAFCVATSLTLLTVAAGWLFYRPLWALLIAGLALVPILVARTRVPAKKLE
B8: CGN (protein, UniProt Q9P2M7 1-1203, looked up)
Cingulin: MEQAPNMAEPRGPVDHGVQIRFITEPVSGAEMGTLRRGGRRPAKDARASTYGVAVRVQGIAGQPFVVLNSGEKGGDSFGVQIKGANDQGASGALSSDLELPENPYSQVKGFPAPSQSSTSDEEPGAYWNGKLLRSHSQASLAGPGPVDPSNRSNSMLELAPKVASPGSTIDTAPLSSVDSLINKFDSQLGGQARGRTGRRTRMLPPEQRKRSKSLDSRLPRDTFEERERQSTNHWTSSTKYDNHVGTSKQPAQSQNLSPLSGFSRSRQTQDWVLQSFEEPRRSAQDPTMLQFKSTPDLLRDQQEAAPPGSVDHMKATIYGILREGSSESETSVRRKVSLVLEKMQPLVMVSSGSTKAVAGQGELTRKVEELQRKLDEEVKKRQKLEPSQVGLERQLEEKTEECSRLQELLERRKGEAQQSNKELQNMKRLLDQGEDLRHGLETQVMELQNKLKHVQGPEPAKEVLLKDLLETRELLEEVLEGKQRVEEQLRLRERELTALKGALKEEVASRDQEVEHVRQQYQRDTEQLRRSMQDATQDHAVLEAERQKMSALVRGLQRELEETSEETGHWQSMFQKNKEDLRATKQELLQLRMEKEEMEEELGEKIEVLQRELEQARASAGDTRQVEVLKKELLRTQEELKELQAERQSQEVAGRHRDRELEKQLAVLRVEADRGRELEEQNLQLQKTLQQLRQDCEEASKAKMVAEAEATVLGQRRAAVETTLRETQEENDEFRRRILGLEQQLKETRGLVDGGEAVEARLRDKLQRLEAEKQQLEEALNASQEEEGSLAAAKRALEARLEEAQRGLARLGQEQQTLNRALEEEGKQREVLRRGKAELEEQKRLLDRTVDRLNKELEKIGEDSKQALQQLQAQLEDYKEKARREVADAQRQAKDWASEAEKTSGGLSRLQDEIQRLRQALQASQAERDTARLDKELLAQRLQGLEQEAENKKRSQDDRARQLKGLEEKVSRLETELDEEKNTVELLTDRVNRGRDQVDQLRTELMQERSARQDLECDKISLERQNKDLKTRLASSEGFQKPSASLSQLESQNQLLQERLQAEEREKTVLQSTNRKLERKVKELSIQIEDERQHVNDQKDQLSLRVKALKRQVDEAEEEIERLDGLRKKAQREVEEQHEVNEQLQARIKSLEKDSWRKASRSAAESALKNEGLSSDEEFDSVYDPSSIASLLTESNLQTSSC
B9: ZC3HAV1 (protein, UniProt Q7Z2W4 2-902, looked up)
Zinc finger CCCH-type …: ADPEVCCFITKILCAHGGRMALDALLQEIALSEPQLCEVLQVAGPDRFVVLETGGEAGITRSVVATTRARVCRRKYCQRPCDNLHLCKLNLLGRCNYSQSERNLCKYSHEVLSEENFKVLKNHELSGLNKEELAVLLLQSDPFFMPEICKSYKGEGRQQICNQQPPCSRLHICDHFTRGNCRFPNCLRSHNLMDRKVLAIMREHGLNPDVVQNIQDICNSKHMQKNPPGPRAPSSHRRNMAYRARSKSRDRFFQGSQEFLASASASAERSCTPSPDQISHRASLEDAPVDDLTRKFTYLGSQDRARPPSGSSKATDLGGTSQAGTSQRFLENGSQEDLLHGNPGSTYLASNSTSAPNWKSLTSWTNDQGARRKTVFSPTLPAARSSLGSLQTPEAVTTRKGTGLLSSDYRIINGKSGTQDIQPGPLFNNNADGVATDITSTRSLNYKSTSSGHREISSPRIQDAGPASRDVQATGRIADDADPRVALVNDSLSDVTSTTSSRVDDHDSEEICLDHLCKGCPLNGSCSKVHFHLPYRWQMLIGKTWTDFEHMETIEKGYCNPGIHLCSVGSYTINFRVMSCDSFPIRRLSTPSSVTKPANSVFTTKWIWYWKNESGTWIQYGEEKDKRKNSNVDSSYLESLYQSCPRGVVPFQAGSRNYELSFQGMIQTNIASKTQKDVIRRPTFVPQWYVQQMKRGPDHQPAKTSSVSLTATFRPQEDFCFLSSKKYKLSEIHHLHPEYVRVSEHFKASMKNFKIEKIKKIENSELLDKFTWKKSQMKEEGKLLFYATSRAYVESICSNNFDSFLHETHENKYGKGIYFAKDAIYSHKNCPYDAKNVVMFVAQVLVGKFTEGNITYTSPPPQFDSCVDTRSNPSVFVIFQKDQVYPQYVIEYTEDKACVIS
B10: DARS (protein, UniProt P14868 1-501, looked up)
Aspartate--tRNA ligase, …: MPSASASRKSQEKPREIMDAAEDYAKERYGISSMIQSQEKPDRVLVRVRDLTIQKADEVVWVRARVHTSRAKGKQCFLVLRQQQFNVQALVAVGDHASKQMVKFAANINKESIVDVEGVVRKVNQKIGSCTQQDVELHVQKIYVISLAEPRLPLQLDDAVRPEAEGEEEGRATVNQDTRLDNRVIDLRTSTSQAVFRLQSGICHLFRETLINKGFVEIQTPKIISAASEGGANVFTVSYFKNNAYLAQSPQLYKQMCICADFEKVFSIGPVFRAEDSNTHRHLTEFVGLDIEMAFNYHYHEVMEEIADTMVQIFKGLQERFQTEIQTVNKQFPCEPFKFLEPTLRLEYCEALAMLREAGVEMGDEDDLSTPNEKLLGHLVKEKYDTDFYILDKYPLAVRPFYTMPDPRNPKQSNSYDMFMRGEEILSGAQRIHDPQLLTERALHHGIDLEKIKAYIDSFRFGAPPHAGGGIGLERVTMLFLGLHNVRQTSMFPRDPKRLTP

The molecules below were run on GFP-14-3-3β (assay: GFP-14-3-3β co-IP with LC-MS/MS, untreated GFP-14-3-3β versus GFP control (14-3-3 interactome)). Conditions: untreated vs GFP; label-free quantification.
Type: binding, human

Molecule	Difference (log2), untreated vs GFP [log2]
B1	1.029
B2	1.257
B3	1.613
B4	-2.499
B5	-0.2637
B6	-0.5352
B7	-0.2983
B8	1.896
B9	-0.3627
B10	-1.63

These molecules were tested on GFP-14-3-3β and its binding proteins (assay: GFP-14-3-3β co-IP with LC-MS/MS label-free quantification, untreated versus PP1c-treated). Conditions: PP1 vs untreated; label-free quantification.
Set-up: species or system human

Molecule	Difference (log2), PP1 vs untreated [log2]
B1	1.045
B2	1.025
B3	1.003
B4	1.068
B5	1.03
B6	1.074
B7	1.071
B8	1.065
B9	1.025
B10	1.065
